Square brackets hold non-standard residues; d marks the D form. Ends that are not written are not given here. * marks the point of attachment. Biotin = O=C1N[C@H]2[C@H](CS[C@H]2CCCCC(=O)*)N1; 4‑chlorobenzhydryl = Clc1ccc(C(c2ccccc2)*)cc1; Bip = N[C@@H](Cc1ccc(-c2ccccc2)cc1)C(=O)O; dPhe(4-Br) = N[C@H](Cc1ccc(Br)cc1)C(=O)O; dPhe(4-Me) = Cc1ccc(C[C@@H](N)C(=O)O)cc1; Trt = c1ccc(C(c2ccccc2)(c2ccccc2)*)cc1; dPhe(4-F) = N[C@H](Cc1ccc(F)cc1)C(=O)O; Dmt = Cc1cc(O)cc(C)c1C[C@H](N)C(=O)O; Benzhydryl = c1ccc(C(c2ccccc2)*)cc1; Palmitoyl = CCCCCCCCCCCCCCCC(=O)*; Myristoyl = CCCCCCCCCCCCCC(=O)*; Lauroyl = CCCCCCCCCCCC(=O)*; Decanoyl = CCCCCCCCCC(=O)*; Octanoyl = CCCCCCCC(=O)*; SO3H = O=S(=O)(O)*; Bn = c1ccc(C*)cc1
T1: GPR39 (G protein coupled receptor 39) (UniProt O43194 1-453, limits assumed)
T1 sequence (looked up): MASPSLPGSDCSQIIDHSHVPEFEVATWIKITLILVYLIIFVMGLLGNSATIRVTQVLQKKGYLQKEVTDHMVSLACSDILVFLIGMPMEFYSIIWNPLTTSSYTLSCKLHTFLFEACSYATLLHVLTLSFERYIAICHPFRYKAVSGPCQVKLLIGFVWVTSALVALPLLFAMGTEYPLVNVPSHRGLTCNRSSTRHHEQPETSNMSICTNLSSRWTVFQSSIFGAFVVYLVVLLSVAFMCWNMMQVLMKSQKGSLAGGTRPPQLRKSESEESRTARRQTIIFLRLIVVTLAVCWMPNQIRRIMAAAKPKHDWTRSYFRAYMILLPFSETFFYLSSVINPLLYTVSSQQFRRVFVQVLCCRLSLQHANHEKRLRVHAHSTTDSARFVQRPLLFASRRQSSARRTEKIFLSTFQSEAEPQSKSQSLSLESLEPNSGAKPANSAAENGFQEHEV

B1: HKFY-42 (peptide)
peptide: H(Trt)K(Octanoyl)FYHQQARF
modifications: not fully specified; printed as His(trt)-Lys(caprylic)-Phe-Tyr-His-Gln-Gln-Ala-Arg-Phe
B2: HKFY-39 (peptide)
peptide: H(Trt)K(Octanoyl)FYSQNGARF
modifications: also: C-terminal amide in IUPAC name, not in sequence formula, .39 lacks Gln-Asn
B3: HKFY-40 (peptide)
peptide: H(Trt)K(Octanoyl)FYSHQQARF
modifications: not fully specified; printed as His(trt)-Lys(caprylic)-Phe-Tyr-Ser-His-Gln-Gln-Ala-Arg-Phe
B4: HKFY-38 (peptide)
peptide: H(Trt)K(Octanoyl)FYSDQQARF
modifications: not fully specified; printed as His(trt)-Lys(caprylic)-Phe-Tyr-Ser-Asp-Gln-Gln-Ala-Arg-Phe

molecular target: T1, GPR39 (G protein coupled receptor 39); assay: cell-based or functional assay

**Q.** Which results are given for H(Bn)K(Octanoyl)FY [HKFY-3]?
**A.** EC50; SRE-luciferase reporter: 4130 nM; ECmax; SRE-luciferase reporter: 9.2 -fold induction over basal

**Q.** What does the source list for H(Benzhydryl)K(Octanoyl)[dPhe(4-Me)][Dmt] [HKFY-36]?
**A.** EC50; SRE-luciferase reporter: 150 nM; ECmax; SRE-luciferase reporter: 9.9 -fold induction over basal

**Q.** Which results are given for H(Trt)K(Lauroyl)FY-OH [HKFY-25]?
**A.** EC50; SRE-luciferase reporter: 630 nM; ECmax; SRE-luciferase reporter: 7.72 -fold induction over basal

**Q.** What does the source list for H(Trt)K(Octanoyl)YF-OH [HKFY-47]?
**A.** EC50; SRE-luciferase reporter: 300 nM; ECmax; SRE-luciferase reporter: 13 -fold induction over basal

**Q.** What does the source list for H(Benzhydryl)K(Octanoyl)FY [HKFY-33]?
**A.** EC50; SRE-luciferase reporter: 150 nM; ECmax; SRE-luciferase reporter: 20 -fold induction over basal

**Q.** Which “EC50; SRE-luciferase reporter” value does the source give for B1 here?
**A.** Its value is 1580 nM.

**Q.** What about the “ECmax; SRE-luciferase reporter” value of the same binder?
**A.** Its value is 11.8 -fold induction over basal.

**Q.** For H(Trt)K(Octanoyl)FYW [HKFY-44], which “EC50; SRE-luciferase reporter” value is on record?
**A.** The value was 370 nM.

**Q.** And the “ECmax; SRE-luciferase reporter” value?
**A.** The value was 20 -fold induction over basal.

**Q.** For HK(Octanoyl)[dPhe(4-Me)]Y (not fully specified (residue 1)) [HKFY-32], which “EC50; SRE-luciferase reporter” value is on record?
**A.** Its value is 2 nM.

**Q.** What about the “ECmax; SRE-luciferase reporter” value of the same binder?
**A.** Its value is 21.5 -fold induction over basal.

**Q.** What does the source list for [dH](Trt)K(Octanoyl)FY [HKFY-4]?
**A.** EC50; SRE-luciferase reporter: 130 nM; ECmax; SRE-luciferase reporter: 16.8 -fold induction over basal

**Q.** For B2, which “ECmax; SRE-luciferase reporter” value is on record?
**A.** Its value is 12.1 -fold induction over basal.

**Q.** B3 was tested. Which “EC50; SRE-luciferase reporter” value did it give?
**A.** Its value is 1300 nM.

**Q.** What about the “ECmax; SRE-luciferase reporter” value of the same binder?
**A.** The value was 13.4 -fold induction over basal.

**Q.** With His(Trt)-Lys(Octanoyl)-Phe-OH [HKFY-49] as the binder, how does the “EC50; SRE-luciferase reporter” value read?
**A.** Its value is 320 nM.

**Q.** And the “ECmax; SRE-luciferase reporter” value?
**A.** Its value is 18.3 -fold induction over basal.

**Q.** What does the source list for H(Trt)K(Octanoyl)[dPhe(4-Me)]Y [HKFY-30]?
**A.** EC50; SRE-luciferase reporter: 8 nM; ECmax; SRE-luciferase reporter: 23.9 -fold induction over basal

**Q.** For H(Trt)K(Octanoyl)FW [HKFY-46], which “EC50; SRE-luciferase reporter” value is on record?
**A.** Its value is 260 nM.

**Q.** What about the “ECmax; SRE-luciferase reporter” value of the same binder?
**A.** Its value is 20 -fold induction over basal.

**Q.** B4 was tested. Which “EC50; SRE-luciferase reporter” value did it give?
**A.** The value was 3500 nM.

**Q.** And the “ECmax; SRE-luciferase reporter” value?
**A.** Its value is 16.5 -fold induction over basal.

**Q.** With HK(Octanoyl)FY (not fully specified; also: His1 substituent: adamantan-1-yl or adamantanmethyl) [HKFY-23] as the binder, how does the “EC50; SRE-luciferase reporter” value read?
**A.** Its value is 2600 nM.

**Q.** What about the “ECmax; SRE-luciferase reporter” value of the same binder?
**A.** Its value is 15 -fold induction over basal.

**Q.** For [dH](Trt)K(Octanoyl)[dPhe(4-Me)]Y [HKFY-31], which “EC50; SRE-luciferase reporter” value is on record?
**A.** Its value is 20 nM.

**Q.** What about the “ECmax; SRE-luciferase reporter” value of the same binder?
**A.** Its value is 20.9 -fold induction over basal.

**Q.** Which results are given for H(Trt)K(Octanoyl)[dPhe(4-Br)]Y-OH [HKFY-29]?
**A.** EC50; SRE-luciferase reporter: 310 nM; ECmax; SRE-luciferase reporter: 26.8 -fold induction over basal

**Q.** Which results are given for H(Benzhydryl)K(Octanoyl)[dPhe(4-Me)]Y(SO3H) [HKFY-35]?
**A.** EC50; SRE-luciferase reporter: 280 nM; ECmax; SRE-luciferase reporter: 18.9 -fold induction over basal

**Q.** With H(Trt)K(Octanoyl)YY-OH [HKFY-48] as the binder, how does the “EC50; SRE-luciferase reporter” value read?
**A.** The value was 330 nM.

**Q.** What about the “ECmax; SRE-luciferase reporter” value of the same binder?
**A.** The value was 14.4 -fold induction over basal.

**Q.** How did the “EC50; SRE-luciferase reporter” value turn out when H(Trt)K(Octanoyl)[dPhe(4-F)]Y-OH [HKFY-28] was run?
**A.** Its value is 74 nM.

**Q.** What about the “ECmax; SRE-luciferase reporter” value of the same binder?
**A.** Its value is 22.9 -fold induction over basal.

**Q.** Which results are given for H(4‑chlorobenzhydryl)K(Octanoyl)FY [HKFY-21]?
**A.** EC50; SRE-luciferase reporter: 136000 nM; ECmax; SRE-luciferase reporter: 18.3 -fold induction over basal

**Q.** How did the “EC50; SRE-luciferase reporter” value turn out when H(Trt)K(Octanoyl)FYQNQARF (also: C-terminal Phe amide in IUPAC name, not in sequence formula) [HKFY-43] was run?
**A.** Its value is 1210 nM.

**Q.** And the “ECmax; SRE-luciferase reporter” value?
**A.** The value was 12.1 -fold induction over basal.

**Q.** H(Trt)K(Palmitoyl)FY-OH [HKFY-27] was tested. Which “EC50; SRE-luciferase reporter” value did it give?
**A.** The value was 560 nM.

**Q.** And the “ECmax; SRE-luciferase reporter” value?
**A.** The value was 20.4 -fold induction over basal.

**Q.** For Biotin-H(Trt)K(Octanoyl)[Bip]Y [HKFY-45], which “EC50; SRE-luciferase reporter” value is on record?
**A.** Its value is 140 nM.

**Q.** And the “ECmax; SRE-luciferase reporter” value?
**A.** The value was 21 -fold induction over basal.

**Q.** What does the source list for H(Trt)K(Decanoyl)FY-OH [HKFY-24]?
**A.** EC50; SRE-luciferase reporter: 240 nM; ECmax; SRE-luciferase reporter: 7.03 -fold induction over basal

**Q.** What does the source list for H(4‑methylbenzhydryl)K(Octanoyl)FY [HKFY-22]?
**A.** EC50; SRE-luciferase reporter: 59800 nM; ECmax; SRE-luciferase reporter: 21.3 -fold induction over basal

**Q.** What does the source list for H(Trt)K(Octanoyl)FYQNGARF (not fully specified (C-terminus)) [HKFY-41]?
**A.** EC50; SRE-luciferase reporter: 9550 nM; ECmax; SRE-luciferase reporter: 12.2 -fold induction over basal

**Q.** Which “EC50; SRE-luciferase reporter” value does the source give for GSH(Trt)K(Octanoyl)FY [HKFY-37] here?
**A.** The value was 1840 nM.

**Q.** And the “ECmax; SRE-luciferase reporter” value?
**A.** Its value is 16 -fold induction over basal.

**Q.** For H(Trt)K(Myristoyl)FY-OH [HKFY-26], which “EC50; SRE-luciferase reporter” value is on record?
**A.** The value was 280 nM.

**Q.** And the “ECmax; SRE-luciferase reporter” value?
**A.** The value was 19.8 -fold induction over basal.
